# Assay results: PMC12058526
# Molecular target: human endogenous fatty acid synthase (FASN) (human) (UniProt P49327)
# Experiment: cryo-EM structure; purified endogenous FASN at 0.5-1.0 mg/ml in TBS buffer, alone or incubated 30 min with 1 mM orlistat or 3 mM 1,3-DBP; C2 symmetry applied; condensing and modifying wings refined separately
substance,measurement,value
"human endogenous fatty acid synthase (FASN), P49327 1-2511",stoichiometry N,2
